Experimental data from US20140328762A1 (published 2014).

Legend:
[1] = molecular target: JunLZ-Sb1b4 beacon (UniProt P0AEX9 27-392 = MBP); assay: fluorescence screening assay (FIG. 11)
Procedure: (§1) The graphs show a comparison of binding-induced fluorescence enhancement of JunLZ beacons. Concentration for all beacons is 1.0 and concentration of FosLZ or scrFosLZ is 10.0 μM. The assay was carried out in 0.1 M PBS, pH7.2 at room temperature. […] Numbers above the curves represent signal to noise ratios calculated from the maxim emission values that centered around 585 nm.
(§2) The purified fusion proteins were used directly without removing the MBP fusion partner. To prepare the beacons, TAMRA fluorophores were attached to the fusion proteins via the maleimide chemistry.

[2] = molecular target: JunLZ-Sb1b3 beacon (UniProt P0AEX9 27-392 = MBP); assay: fluorescence screening assay (FIG. 11)
Procedure: as §1, §2

[3] = molecular target: JunLZ-Sb3b5 beacon (UniProt P0AEX9 27-392 = MBP); assay: fluorescence screening assay (FIG. 11)
Procedure: as §1, §2

[4] = molecular target: JunLZ-Lb1b4 beacon (UniProt P0AEX9 27-392 = MBP); assay: fluorescence emission screening (FIG. 11)
Procedure: as §1, §2

[5] = molecular target: JunLZ-Lb3b5 beacon (UniProt P0AEX9 27-392 = MBP); assay: fluorescence emission screening (FIG. 11)
Procedure: as §1, §2

[6] = molecular target: JunLZ-Lb1b3 beacon (UniProt P0AEX9 27-392 = MBP); assay: fluorescence emission screening (FIG. 11)
Procedure: as §1, §2

[7] = molecular target: JunLZ-Lb2b5 beacon (UniProt P0AEX9 27-392 = MBP); assay: fluorescence emission screening (FIG. 11)
Procedure: as §1, §2

Measured: binding result

B1: scrFosLZ (MBP-scrFosLZ, fusion protein of MBP and the scrambled cFos leucine zipper) (other, not shown: large carriers)
chain: GGSGGTDTAQAETDQAEDEKSAAQTEIANALKEKEKAEFILA
notes: Negative control; also called scrambled FosLZ
no binding (tested: 10.0 µM): all assays above
